From US20230322857A1, “RECOMBINANTLY ENGINEERED POLYPEPTIDES CAPABLE OF RECYCLING NONCANONICAL COFACTORS” (The Regents of the University of California, priority 2022, published 2023)

B1: TS-PTDH: 16× thermostable variant of Pseudomonas stutzeri phosphite dehydrogenase (SEQ ID NO:2), engineering template (protein, listed as Pseudomonas stutzeri)
chain: MLPKLVITHRVHEEILQLLAPHCELITNQTDSTLTREEILRRCRDAQAMMAFMPDRVDADFLQACPELRVIGCALKGFDNFDVDACTARGVWLTFVPDLLTVPTAELAIGLAVGLGRHLRAADAFVRSGKFRGWQPRFYGTGLDNATVGFLGMGAIGLAMADRLQGWGATLQYHEAKALDTQTEQRLGLRQVACSELFASSDFILLALPLNADTLHLVNAELLALVRPGALLVNPCRGSVVDEAAVLAALERGQLGGYAADVFEMEDWARADRPQQIDPALLAHPNTLFTPHIGSAVRAVRLEIERCAAQNILQALAGERPINAVNRLPKANPAAD
B2: wild-type PTDH: wild-type phosphite dehydrogenase enzyme, literature TTN with NAD^+ (protein, UniProt O69054 1-336, looked up)
Phosphonate dehydrogenase: MLPKLVITHRVHDEILQLLAPHCELMTNQTDSTLTREEILRRCRDAQAMMAFMPDRVDADFLQACPELRVVGCALKGFDNFDVDACTARGVWLTFVPDLLTVPTAELAIGLAVGLGRHLRAADAFVRSGEFQGWQPQFYGTGLDNATVGILGMGAIGLAMADRLQGWGATLQYHEAKALDTQTEQRLGLRQVACSELFASSDFILLALPLNADTQHLVNAELLALVRPGALLVNPCRGSVVDEAAVLAALERGQLGGYAADVFEMEDWARADRPRLIDPALLAHPNTLFTPHIGSAVRAVRLEIERCAAQNIIQVLAGARPINAANRLPKAEPAAC

Experiments:
[1] = BNA(H)-mediated PTDH biotransformation with TsOYE; type: biochemical; conditions: 0, 5, 10, or 20 mM BNA^+
Protocol: BNA(H)-Mediated PTDH Biotransformation. Reactions with BNA^+, see FIG. 10D, contained 100 mM MOPS-NaOH at pH 7.6, 10 mM KIP, 100 mM sodium phosphite, and 2% v/v DMSO. BNA^+Cl^−, prepared by refluxing equimolar amounts of nicotinamide and benzyl chloride in acetonitrile overnight, followed by precipitation with diethyl ether on ice was supplied to the reactions at final concentrations of 0, 5, 10, or 20 mM. Reactions were initiated by spiking TsOYE and the appropriate TS-PTDH variant to a final concentration of 10 μM, each. Reaction mixtures were incubated at 30° C. on a Thermomixer C (Eppendorf) with shaking at 900 rpm for 24 h, extracted with 500 μL ethyl acetate containing 5 mM n-dodecane, and analyzed by GC-FID. The cycling system with no BNA was used to determine the background activity of the cycling systems. This value was subtracted from the final levodione concentrations in the 5-, 10-, and 20-mM samples to determine the BNA(H)^− specific levodione production. Concentrations of levodione product were determined using a calibration line (0-10 mM, 6 levels, using n-dodecane as internal standard). The y-intercept of the calibration line was forced through 0.
For BNA(H)-mediated reactions, gas chromatography analyses were performed on a GC-2010 (Shimadzu, Japan) equipped with an AOC-20i auto injector and a flame ionization detector (FID), using a CP-Sil 5 column (25 m×0.25 mm×[…]). 1 μL of sample was injected with a split ratio of 100:1 and injector at 340° C. The FID was maintained at 360° C. Nitrogen was used as the carrier gas, with a linear velocity of 30 cm/s. The oven was held at 135° C. for 1 min, ramped at 15° C./min to 215° C., then 30° C./min to 345° C., and held at 345° C. for 1 min.
Expression and Purification of Proteins for BNA(H)-Mediated Biotransformation Reactions. E. coli BL21(DE3) strains were transformed with the plasmids containing the TS-PTDH variants and grown on LB-agar plates containing ampicillin at 37° C. overnight. An overnight culture, 15 mL LB supplemented with ampicillin, was inoculated with a single colony, and grown at 37° C., 170 rpm overnight. 2 L baffled shake-flasks with 250 mL of 2×YT media containing 200 μg/mL ampicillin, were inoculated with the overnight culture, grown at 37° C., 170 rpm until OD600 of ˜1.0, induced with IPTG (0.5 mM), and grown at 30° C. and 170 rpm for 24 h. Cells were harvested by centrifugation at 18,000×g, 4° C., 10 min and stored at −20° C. until purification.
The pellet was resuspended in four volumes loading buffer (50 mM sodium phosphate, 300 mM sodium chloride, 10 mM imidazole, pH 7.7), and lysed on ice by sonication (Branson sonifier 250; 15 min total, 40% duty cycle, output control 3.5, 2 mm tip). The lysate was clarified (21,000×g, 4° C., 30 min followed by 0.2 μm filtration), and loaded (1 mL/min) onto a Nickel-HisTrap FF crude (1 mL) column, washed with loading buffer (12 column volumes, CV), followed by a step with 10% elution buffer (loading buffer containing 250 mM imidazole; 12 CV). The protein was then eluted with 100% elution buffer and collected in fractions of 0.5 mL. Fractions containing protein were combined and dialyzed against ice-cold dialysis buffer (50 mM sodium phosphate, pH 7.7, 800 mL); the buffer was renewed after the first 2 h of dialysis. Following the dialysis, the protein was mixed with glycerol (20% v/v final concentration). Enzyme concentrations were estimated by the absorbance at 280 nm (non-denatured protein), using predicted extinction coefficients (wild type and LY-13: 26470, LY-7: […]; web.expasy.org/protparam/). The protein was aliquoted, flash frozen in liquid nitrogen, and stored at −80° C. until use. […]

[2] = Steady-state kinetics of TS-PTDH variants with NMN^+; type: biochemical; conditions: enzyme could not be saturated; 100 mM MOPS, pH 7.25, 10 mM sodium phosphite
Protocol: (§1) Purification and Characterization of TS-PTDH Variants. The E. coli BL21(DE3) strains harboring pQElac plasmids encoding the TS-PTDH or TS-PTDH variants were grown in 2×YT media with kanamycin and ampicillin at 37° C. The IPTG-inducible expression, Ni-affinity purification, and protein concentration determination was conducted as described above.
(§2) The steady-state kinetic parameters toward the coenzymes were measured by spiking purified protein into a 100 μL reaction mixture containing 100 mM MOPS, pH 7.25, 10 mM sodium Pt, and varied cofactor concentrations from 0.02 mM to 5 mM at 25° C. The kinetic parameters were measured by monitoring the […] of reduced coenzyme at 340 nm. Data were fitted to the Michaelis-Menten equation to generate estimates of KM and kcat values.

[3] = Steady-state kinetics of TS-PTDH variants with NADP^+; type: biochemical; conditions: 100 mM MOPS, pH 7.25, 10 mM sodium phosphite, varied cofactor concentrations; n = 3
Protocol: as §1, §2

[4] = Specific activity of TS-PTDH variants with NMN^+; type: biochemical; conditions: 100 mM MOPS pH 7.25, 10 mM sodium Pt, 4 mM cofactor, 25° C.
Protocol: as §1
The specific activities of TS-PTDH and variants were measured with the following methods. Briefly, the reaction mixture contained 100 mM MOPS buffer, pH 7.25, 10 mM sodium Pt, and 4 mM cofactor (NAD^+, NADP^+, or NMN^+). The formation of reduced coenzyme was measured by light absorption at 340 nm in a 96-well plate at 25° C. Absorption was correlated to a molar basis using the extinction coefficient (ε) of 6.22 mM^−1 cm^−1 for each cofactor.

[5] = Steady-state kinetics of TS-PTDH variants with NAD^+; type: biochemical; conditions: 100 mM MOPS, pH 7.25, 10 mM sodium phosphite, varied cofactor concentrations; n = 3
Protocol: as §1, §2

[6] = system: E. coli SHuffle strain; experiment: Recapitulation of growth restoration with TS-PTDH variants in SHuffle strain; type: cell-based, Escherichia coli; conditions: spotted onto agar selection plates
Protocol: Selection of TS-PTDH Library. A total of 50 μL pre-made SHuffle/pLZ311 or SHuffle/pLZ312 electro-competent cells were transformed with 2 μL TS-PTDH A155N-E175-A176-L208 NNK library DNA (pLZ316) via electroporation as described above. After rescue in SOC media for 1 h, cultures were combined in 10 mL 2×YT with 10 g/L glucose, 0.5% arabinose, kanamycin and ampicillin. 0.2, or 1 μL of culture was immediately taken from the culture and plated on an 2×YT agar plates with kanamycin and ampicillin. The plate was incubated at 37° C. overnight, and the number of colonies formed was counted to estimate the library size. The liquid cultures were incubated at 37° C. with shaking for 10 h. Cells (1 mL) were washed 3 times and re-suspended in M9 Buffer. Targeted serial dilutions of cells were prepared in M9 buffer and 5 μL aliquots were dispensed in series on an agar plate of M9 selection media containing 0.5 mM diamide, 5 or 1 g/L yeast extract, 10 g/L glucose, 0.5% arabinose, 0.5 mM IPTG, 10 g/L sodium phosphite, kanamycin, ampicillin, and 5 mM NMN^+. Selection plates were incubated at 37° C., and photographs were taken to document growth progress. The independent transformants sampled was calculated as 2.4×10^6 and 2.5×10^6 colonies when plated on 5 and 1 g/L yeast extract, respectively. TS-PTDH and the template of the library, TS-PTDH A155N, were cultured in the same conditions as controls. The colonies were numbered by the order of appearance. The selected cells were re-streaked on fresh agar plate with identical media and incubated until single colonies formed on the plate. Variants that cannot forma single colony may be false positives. After extracting the plasmids from each re-streaked colony, the chosen TS-PTDH variants were amplified and moved into the pQElac vector containing a N-terminal 6×His tag for protein purification and characterization. […] 2 μL of a serial dilution of cells were deposited onto a growth selection plate and grown at 37° C.

[7] = reported values; cited from earlier work

Row | Molecule | response of biotransformation efficiency to BNA^+ concentration [1] | Km [2] | Km [3] | NADP^+ kcat [3] | NMN^+-dependent specific activity [4] | Km [5] | NAD^+ kcat [5] | growth restoration, co-expression with NMNH-specific Gor Ortho [6] | growth, co-expression with wild type Ec Gor [6] | TTN with NAD^+ [7]
1 | B1 | cofactor dose-dependent response | > 5000 µM | 740 ± 40 µM | 0.57 ± 0.01 s⁻¹ | 53.0 ± 3.4 nmol/min/mg | 60 ± 10 µM | 1.03 ± 0.01 s⁻¹ | grew poorly | supported cell growth | –
2 | B2 | – | – | – | – | – | – | – | – | – | 80,000
